Columns and labels:
Assay in all cases: cell_activity
[1] = tested on: ZFN 16245 (POU5F1) (synthetic); details: K562; two ZFN pairs co-transfected, deletion only with both
[2] = tested on: ZFN 11177 (BAK del. B) (synthetic); details: CHO-K1; BAK deletion B, two ZFN pairs
[3] = tested on: ZFN 10344 (BAK) (synthetic); details: CHO-K1; BAK deletion, two ZFN pairs
[4] = tested on: ZFN 16248 (POU5F1) (synthetic); details: K562; two ZFN pairs co-transfected
[5] = tested on: ZFN 16247 (POU5F1) (synthetic); details: K562; two ZFN pairs co-transfected
[6] = tested on: ZFN 11183 (BAK) (synthetic); details: CHO-K1; BAK deletion, two ZFN pairs
[7] = tested on: ZFN 10311 (BAK) (synthetic); details: CHO-K1; BAK deletion, two ZFN pairs
[8] = tested on: ZFN 10317 (BAK del. A) (synthetic); details: CHO-K1; BAK deletion A, two ZFN pairs
[9] = tested on: ZFN 10342 (BAK) (synthetic); details: CHO-K1; BAK deletion, two ZFN pairs
[10] = tested on: ZFN 16246 (POU5F1) (synthetic); details: K562; two ZFN pairs co-transfected

Sequence: AAGCTGGTCTGGTGGCTAGGTAGATCCT (double strand) [POU5F1 site of 16245]
- activity (% cells with deletion) [1]: 4

Sequence: AGGATTAGGAGGATGGGATTTGGCACTG (double strand) [BAK site of 11177]
- activity (% cells with deletion) [2]: 1

Sequence: ATCAGGAAGAGGCTGGGTGTCACAGCGT (double strand) [BAK site of 10344]
- activity (% cells with deletion) [3]: 1

Sequence: ATGAGTCAGTGAACAGGGAATGGGTGAA (double strand) [POU5F1 site of 16248]
- activity (% cells with deletion) [4]: 4

Sequence: ATGTAACAAAGGACTACTCTTCCCCCAG (double strand) [POU5F1 site of 16247]
- activity (% cells with deletion) [5]: 4

Sequence: CACGGGCCCAGGGTGGGGCAGAAAGCCC (double strand) [BAK site of 11183]
- activity (% cells with deletion) [6]: 1

Sequence: CAGCACGGGCCCAGGGTGGGGCAGAAAG (double strand) [BAK site of 10311]
- activity (% cells with deletion) [7]: 1

Sequence: GCCAGGATTAGGAGGATGGGATTTGGCA (double strand) [BAK site of 10317]
- activity (% cells with deletion) [8]: 1

Sequence: GCGGCCAGGCCAAGGCAGACTTTCTGAC (double strand) [BAK site of 10342]
- activity (% cells with deletion) [9]: 1

Sequence: GGGCTCTGGAAGGCCCACTTCAGGGCCT (double strand) [POU5F1 site of 16246]
- activity (% cells with deletion) [10]: 4

— patent US20110207221
